Measured values: patent US20250290928A1, “METHOD, KIT AND DEVICE FOR DETECTING EXTRACELLULAR VESICLES” (priority 2022, published 2025)
No end group written: not given here. TQ3 = quencher

How the values were obtained:
[1] = biological target: T1, MMP14 in the MDA-MB-231-derived extracellular vesicles (Homo sapiens, UniProt P50281); assay: Digital detection through MMP14 activity of MDA-MB-231-derived extracellular vesicles captured on anti-CD9/CD63/CD81 antibody-immobilized particles; type: biochemical; conditions: 24 hours of reaction
T1 construct: in terms of intact MMP14 with a molecular weight of 70 kDa
Description: The concentration of the solution is 10 μg/mL.
For detection of MMP14 activity, 1 mM Custom #2 was diluted with the buffer (4) to prepare a MMP14 detection solution containing 10 μM Custom #2.
The number of the particles was increased 4-fold, and a reaction was allowed to proceed. However, the number and concentration of the particles used to fill the wells are finally the same as those in other Examples.
The concentration of the solution is 10 μg/mL. The solution was subjected to 3-fold serial dilution to prepare standard samples with seven concentrations.
For detection of MMP14 activity, 1 mM Custom #2 and a 100 µM resorufin β-D-galactopyranoside solution were diluted with the buffer (4) to prepare a MMP14 and CD9/CD63/CD81 cocktail detection solution (1) containing 10 μM Custom #2 and 5 μM resorufin β-D-galactopyranoside. In addition, the solution was diluted 2-fold with the buffer (4) to prepare a detection solution (2). Nonfluorescent resorufin β-D-galactopyranoside is degraded by β-galactosidase to produce fluorescent resorufin. In this case, the maximum wavelengths of excitation and fluorescence of resorufin are 570 nm and 585 nm, respectively.
In addition, an antibody-immobilized particle solution was prepared and stored at 4° C. until use, in the same manner as in Example 28 except that Magnosphere MS300/Carboxyl (manufactured by JSR Corporation) (hereinafter abbreviated as “MS300C”) was used as magnetic particles.
For detection of MMP14 activity, 1 mM Custom #2 was diluted with the buffer (4) to prepare a MMP14 detection solution containing 5 μM Custom #2. In addition, 1 mM Custom #2T was diluted with the buffer (4) to prepare a MMP14 detection solution containing 2.5 μM Custom #2T.
An antibody-immobilized particle solution was prepared and stored at 4° C. until use, in the same manner as in Example 28 except that: MS300C was used as magnetic particles; and blocking treatment was performed at 4° C. or room temperature through use of Blockmaster CE210 or CE510 (manufactured by Medical & Biological Laboratories Co., Ltd.) instead of Bead Blocking Buffer (manufactured by Quanterix Corporation).
For detection of MMP14 activity, 1 mM Custom #2 and 1 mM Custom #2T were diluted with the buffer (4) to prepare a MMP14 detection solution containing 5 μM Custom #2 and 2.5 μM Custom #2T serving as the reporter molecules in the same system. […]

[2] = biological target: T1, MMP14 in the MDA-MB-231-derived extracellular vesicles; assay: Digital detection through MMP14 activity of MDA-MB-231-derived extracellular vesicles captured on Tim4-immobilized magnetic particles; type: biochemical; conditions: Table 56, MB231 Present, 24 hours at 23° C.

“TAMRA-GGPLGLAGGK(TQ3) ({TAMRA}-GGPLGLAGGK(TQ3)) [Custom #2T]” was tested, and the Extracellular vesicle concentration ([1]; Particle MS300C, MB231 Absent) was 0.01 ×10^5/μg of protein, the “Particle Expected value λ” value ([1]; Particle MS300C, MB231 Absent) was 0.002 and the Extracellular vesicle concentration ([1]; Particle MS300C, MB231 Present) was 1.4687 ×10^5/μg of protein. The “Particle Expected value λ” value ([1]; Particle MS300C, MB231 Present) was 0.2937, the Extracellular vesicle concentration ([1]; Particle Simoa, MB231 Absent) was 0.0098 ×10^5/μg of protein and the “Particle Expected value λ” value ([1]; Particle Simoa, MB231 Absent) was 0.00196. For the same substance, the Extracellular vesicle concentration ([1]; Particle Simoa, MB231 Present) was 0.3874 ×10^5/μg of protein, the “Particle Expected value λ” value ([1]; Particle Simoa, MB231 Present) was 0.07748 and the “Particle Number of positives” value ([2]; Particle MS300C) was 1,460. The “Particle Number of positives” value ([2]; Particle Simoa) was 359.
